Assay results published in patent US20240343800A1 (Merck KGaA, published 2024).

B1: bispecific TCE 69A02 in Format 1A (bispecific antibody)
heavy 1: EVQLVESGGGLVQPGGSLRLSCAASGFTFNTYAMNWVRQAPGKGLEWVARIRSKYNNYATYYADSVKDRFTISRDDSKNTLYLQMNSLRAEDTAVYYCVRHGNFGNSYVSWFAYWGQGTMVTVSSASTKGPSVFPLAPSSKSTSGGTAALGCLVKDYFPEPVTVSWNSGALTSGVHTFPAVLQSSGLYSLSSVVTVPSSSLGTQTYICNVNHKPSNTKVDKKVEPKSCDKTHTCPPCPAPPVAGPSVFLFPPKPKDTLMISRTPEVTCVVVDVSHEDPEVKFNWYVDGVEVHNAKTKPREEQYNSTYRVVSVLTVLHQDWLNGKEYKCAVSNKALAAPIEKTISKAKGQPFRPEVHLLPPSREEMTKNQVSLTCLARGFYPKDIAVEWESNGQPENNYKTTPSRQEPSQGTTTFAVTSKLTVDKSRWQQGNVFSCSVMHEALHNHYTQKTISLSPGK
heavy 2: ETTLTQSPATLSVSPGETATLSCRASQSVSSNLAWYQQKPGQAPRLLIYGASTRATGIPATFSGSGSGTEFTLTISSLQSEDFAIYYCQQYKNWPPAFGGGTELEIKGGGGSGGGGSGGGGSGGGGSQVTLKESGPTLVKPTQTLTLTCSFSGFSITTSGVSVGWIRQPPGKALEWLALIYWDDDKRYSPSLKSRLTITRDTSKNQVVLTMTNMDPVDTATYYCAHAPRYTPGGYFDYWGQGTLVTVSSEPKSSDKTHTCPPCPAPPVAGPSVFLFPPKPKDTLMISRTPEVTCVVVDVSHEDPEVKFNWYVDGVEVHNAKTKPREEQYNSTYRVVSVLTVLHQDWLNGKEYKCAVSNKALAAPIEKTISKAKGQPREPQVYTLPPPSEELALNELVTLTCLVKGFYPSDIAVEWLQGSQELPREKYLTWAPVLDSDGSFFLYSILRVAAEDWKKGDTFSCSVMHEALHNRFTQKSLDRSPGKGGGGSGGGGSGGGGSGGGGSETTLTQSPATLSVSPGETATLSCRASQSVSSNLAWYQQKPGQAPRLLIYGASTRATGIPATFSGSGSGTEFTLTISSLQSEDFAIYYCQQYKNWPPAFGGGTELEIKGGGGSGGGGSGGGGSGGGGSQVTLKESGPTLVKPTQTLTLTCSFSGFSITTSGVSVGWIRQPPGKALEWLALIYWDDDKRYSPSLKSRLTITRDTSKNQVVLTMTNMDPVDTATYYCAHAPRYTPGGYFDYWGQGTLVTVSS
light: QAVVTQEPSLTVSPGGTVTLTCRSSTGAVTTSNYANWVQQKPGQAPRGLIGGTNKRAPGTPARFSGSLLGGKAALTLSGVQPEDEAEYYCALWYSNLWVFGGGTKLTVLGQPKAAPSVTLFPPSSEELQANKATLVCLISDFYPGAVTVAWKADSSPVKAGVETTTPSKQSNNKYAASSYLSLTPEQWKSHRSYSCQVTHEGSTVEKTVAPTECS
notes: also called 69A02 TCE 1A; 69A02x1F3.5
B2: bispecific TCE 69A02 in Format 1B (bispecific antibody)
heavy 1: ETTLTQSPATLSVSPGETATLSCRASQSVSSNLAWYQQKPGQAPRLLIYGASTRATGIPATFSGSGSGTEFTLTISSLQSEDFAIYYCQQYKNWPPAFGGGTELEIKGGGGSGGGGSGGGGSGGGGSQVTLKESGPTLVKPTQTLTLTCSFSGFSITTSGVSVGWIRQPPGKALEWLALIYWDDDKRYSPSLKSRLTITRDTSKNQVVLTMTNMDPVDTATYYCAHAPRYTPGGYFDYWGQGTLVTVSSEPKSSDKTHTCPPCPAPPVAGPSVFLFPPKPKDTLMISRTPEVTCVVVDVSHEDPEVKFNWYVDGVEVHNAKTKPREEQYNSTYRVVSVLTVLHQDWLNGKEYKCAVSNKALAAPIEKTISKAKGQPFRPEVHLLPPSREEMTKNQVSLTCLARGFYPKDIAVEWESNGQPENNYKTTPSRQEPSQGTTTFAVTSKLTVDKSRWQQGNVFSCSVMHEALHNHYTQKTISLSPGKGGGGSGGGGSGGGGSGGGGSEVQLVESGGGLVQPGGSLRLSCAASGFTFNTYAMNWVRQAPGKGLEWVARIRSKYNNYATYYADSVKDRFTISRDDSKNTLYLQMNSLRAEDTAVYYCVRHGNFGNSYVSWFAYWGQGTMVTVSSASTKGPSVFPLAPSSKSTSGGTAALGCLVKDYFPEPVTVSWNSGALTSGVHTFPAVLQSSGLYSLSSVVTVPSSSLGTQTYICNVNHKPSNTKVDKKVEPKSS
heavy 2: ETTLTQSPATLSVSPGETATLSCRASQSVSSNLAWYQQKPGQAPRLLIYGASTRATGIPATFSGSGSGTEFTLTISSLQSEDFAIYYCQQYKNWPPAFGGGTELEIKGGGGSGGGGSGGGGSGGGGSQVTLKESGPTLVKPTQTLTLTCSFSGFSITTSGVSVGWIRQPPGKALEWLALIYWDDDKRYSPSLKSRLTITRDTSKNQVVLTMTNMDPVDTATYYCAHAPRYTPGGYFDYWGQGTLVTVSSEPKSSDKTHTCPPCPAPPVAGPSVFLFPPKPKDTLMISRTPEVTCVVVDVSHEDPEVKFNWYVDGVEVHNAKTKPREEQYNSTYRVVSVLTVLHQDWLNGKEYKCAVSNKALAAPIEKTISKAKGQPREPQVYTLPPPSEELALNELVTLTCLVKGFYPSDIAVEWLQGSQELPREKYLTWAPVLDSDGSFFLYSILRVAAEDWKKGDTFSCSVMHEALHNRFTQKSLDRSPGK
light: B1 light
notes: also called 69A02 TCE 1B; 1B_69A02x1F3.5 (1B)
B3: 82H02 scFv-Fc (Fc fusion)
VH: EVQLLESGGGLVQPGGSLRLSCAASGFTFTSYAMSWVRQAPGKGLEWVSTISGSGGGTYYTDSVKGRFTISRDNSKNTLYLQMNSLRAEDTAVYYCAQGSSIFDYWGQGTLVTVSS
VL: EIVLTQSPATLSLSPGERATLSCRASQSVSSYLAWYQQKPGQAPRLLIYDASNRATGIPARFSGSGSGTDFTLTISSLEPEDFAVYYCQQRSNWPPCTFGQGTRLEIK
notes: scFv-Fc format; also called unlabelled 82H02 scFv-Fc

How the values were obtained:
human ROR1 (on cells) [1] = molecular target: T1, human ROR1 (on cells) (human, UniProt Q01973 30-937); experiment: cell-based or functional assay
[2] = molecular target: T2, human CD3 (on Jurkat T cells or human CD8+ T cells) (human, UniProt P07766 23-207; P09693 23-182; P04234 22-171; P20963 22-164); experiment: flow cytometry, Jurkat T cells
T2 construct: Entries are printed with signal peptides; also called huCD3; CD3ε
T2 sequence (P07766 23-207 limits assumed, chain 1 of 4): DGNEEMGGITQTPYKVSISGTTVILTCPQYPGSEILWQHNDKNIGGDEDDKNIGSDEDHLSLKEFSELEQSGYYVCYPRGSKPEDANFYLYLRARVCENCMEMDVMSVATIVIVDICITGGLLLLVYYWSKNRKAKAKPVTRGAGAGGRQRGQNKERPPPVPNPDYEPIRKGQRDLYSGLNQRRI
T2 sequence (P09693 23-182 limits assumed, chain 2 of 4): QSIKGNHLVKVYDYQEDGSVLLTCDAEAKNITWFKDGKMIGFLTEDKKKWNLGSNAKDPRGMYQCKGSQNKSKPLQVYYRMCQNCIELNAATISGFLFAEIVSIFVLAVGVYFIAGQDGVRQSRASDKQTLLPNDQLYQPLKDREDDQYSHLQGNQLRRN
T2 sequence (P04234 22-171 limits assumed, chain 3 of 4): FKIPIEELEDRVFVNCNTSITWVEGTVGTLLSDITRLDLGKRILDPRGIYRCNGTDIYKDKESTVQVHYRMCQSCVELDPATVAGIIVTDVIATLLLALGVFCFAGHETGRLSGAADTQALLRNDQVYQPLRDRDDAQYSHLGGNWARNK
T2 sequence (P20963 22-164 limits assumed, chain 4 of 4): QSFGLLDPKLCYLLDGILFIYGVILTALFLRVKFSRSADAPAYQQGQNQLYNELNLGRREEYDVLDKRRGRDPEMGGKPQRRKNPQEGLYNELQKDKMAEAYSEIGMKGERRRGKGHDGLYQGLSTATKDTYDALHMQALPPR
Method: (§1) After washing twice with 200 μL of phosphate buffered saline (PBS) by centrifugation at 500×g for 5 minutes at room temperature, the cells were resuspended in 100 μL of Live/Dead fixable green working buffer (ThermoFisher Scientific, Cat No: L23101; one vial of Live/Dead fixable green powder was dissolved into 50 μL of DMSO and 1 μL of dissolved Live/Dead fixable green was added to 1 mL of PBS to prepare the working buffer). After 15-minutes of incubation at room temperature, the cells were washed twice with 200 μL of PBS by centrifugation at 500×g for 5 minutes at room temperature and resuspended in […] of 10% goat serum in BD staining buffer (BD Biosciences, Cat No: 554657). […] The plates were then covered with foil to avoid direct light and incubated for 60 minutes at 4° C. […] After incubating for 30 minutes at 4° C., the cells were washed twice with 200 μL of PBS by centrifugation at 500×g for 5 minutes at room temperature and resuspended into 100 μL of fixation buffer (BioLegend, Cat No: 420801). The samples were then analyzed on a flow cytometer for binding signal using FlowJo software. ROR and CD3 binding EC₅₀s (concentration vs mean fluorescence intensity (MFI)) for reference molecules and test bispecific TCEs were obtained using 4-parameter non-linear regression curve fitting in GraphPad Prism.

[3] = molecular target: T3, cynomolgus CD3 (on cynomolgus pan-T cells) (cynomolgus, UniProt Q95LI5 22-198); experiment: flow cytometry, cynomolgus pan-T cells
T3 construct: whole, on cells
T3 sequence (Q95LI5 22-198): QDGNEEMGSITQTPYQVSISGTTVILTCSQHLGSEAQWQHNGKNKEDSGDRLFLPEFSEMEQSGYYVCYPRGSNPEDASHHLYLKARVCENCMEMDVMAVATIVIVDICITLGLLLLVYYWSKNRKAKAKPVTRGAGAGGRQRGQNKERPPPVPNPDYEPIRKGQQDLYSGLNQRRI
Method: as §1

human ROR1 (on cells) [4] = molecular target: T1, human ROR1 (on cells); experiment: flow cytometry, MDA-MB-231 cells; reference: Ref. Frz-binding TCE
Method: as §1

human ROR1 (on cells) [5] = molecular target: T1, human ROR1 (on cells); experiment: cell-based or functional assay; remark: listed apart in the source
human ROR1 (on cells) [6] = molecular target: T1, human ROR1 (on cells); experiment: flow cytometry, MDA-MB-231 cells
Method: as §1

human ROR1 (on cells) [7] = molecular target: T1, human ROR1 (on cells); experiment: cell-based or functional assay; remark: listed apart in the source
human ROR1 (on cells) [8] = molecular target: T1, human ROR1 (on cells); experiment: cell-based or functional assay; remark: listed apart in the source
[9] = molecular target: T2, human CD3 (on Jurkat T cells or human …); experiment: flow cytometry; reference: 69A02 TCE in Format 1A
Method: The plates were then covered with foil to avoid direct light and incubated for 60 minutes at 4° C. […] After incubating for 30 minutes at 4° C., the cells were washed twice with 200 μL of PBS by centrifugation at 500×g for 5 minutes at room temperature and resuspended into 100 μL of fixation buffer (BioLegend, Cat No: 420801). The samples were then analyzed on a flow cytometer for binding signal using FlowJo software. ROR and CD3 binding EC₅₀s (concentration vs mean fluorescence intensity (MFI)) for reference molecules and test bispecific TCEs were obtained using 4-parameter non-linear regression curve fitting in GraphPad Prism.

human ROR1 (on cells) [10] = molecular target: T1, human ROR1 (on cells); experiment: flow cytometry competition on NCCIT cells: pre-treatment with titrated unlabelled scFv-Fc, then 146 nM 82H02 scFv-Fc labelled with Alexa Fluor 647-conjugated Zenon fragments

| Binder | EC50 of IFNγ release, human CD8+ T cells + ROR1+ MDA-MB-231 (human ROR1 (on cells) [1]) [nM] | EC50 [2] [nM] | EC50 [3] [nM] | fold higher apparent binding affinity (human ROR1 (on cells) [4]) [fold] | IFNγ release EC50, PBMCs + ROR1+ MDA-MB-231 cells (human ROR1 (on cells) [5]) [nM] | EC50 (human ROR1 (on cells) [6]) [nM] | EC50 of target cell killing (TDCC), human CD8+ T cells + ROR1+ MDA-MB-231 (human ROR1 (on cells) [7]) [nM] | TDCC EC50, PBMCs + ROR1+ MDA-MB-231 cells (human ROR1 (on cells) [8]) [nM] | fold lower apparent binding affinity [9] [fold] | IC50 (read off the curve) (human ROR1 (on cells) [10]) [nM] |
| --- | --- | --- | --- | --- | --- | --- | --- | --- | --- | --- |
| B1 | 0.0215 | 10.4 | 13.4 | > 30 | 0.0876 | 0.23 | 0.0202 | 0.0194 | – | – |
| B2 | 0.0289 | 35.9 | 17.6 | > 30 | 2.09 | 0.43 | 0.0356 | 0.048 | ~4 | – |
| B3 | – | – | – | – | – | – | – | – | – | ~2 |
